# According to doi:10.1101/2023.03.17.533217 (2023):
# B1: Aurora A kinase (AurA), residues 122-403, dephosphorylated (domain or fragment)
# chain: ESKKRQWALEDFEIGRPLGKGKFGNVYLAREKQSKFILALKVLFKAQLEKAGVEHQLRREVEIQSHLRHPNILRLYGYFHDATRVYLILEYAPLGTVYRELQKLSKFDEQRTATYITELANALSYCHSKRVIHRDIKPENLLLGSAGELKIADFGWSVHAPSSRRTTLCGTLDYLPPEMIEGRMHDEKVDLWSLGVLCYEFLVGKPPFEANTYQETYKRISRVEFTFPDFVTEGARDLISRLLKHNPSQRPMLREVLEHPWITANSSKPSNCQNKESASKQS
# Key:
# [1] = target: B1; assay: ITC; 150 µM danusertib
# [2] = target: B1; assay: ITC
# [3] = target: B1; assay: ITC; 50 µM danusertib
# [4] = target: B1; assay: ITC; danusertib
# Mb3 [5] = assay: ITC
# Mb3 [6] = assay: ITC; danusertib
Binder,Kd [1] [µM],Kd [2] [nM],Kd [3] [µM],Kd [4] [nM],Kd (Mb3 [5]) [nM],Kd (Mb3 [6]) [nM]
activating monobody Mb1 (designed binder) GSVSSVPTKLEVVAATPTSLLISWDAQTYQMYDYVSYYRITYGETGGNSPVQEFTVPGYYSTATISGLKPGVDYTITVYAEGYYSSYSPISINYRT,17.7,952,18,–,–,–
inhibiting monobody Mb2 (designed binder) GSVSSVPTKLEVVAATPTSLLISWDAPAVTVVHYVITYGETGGNSPVQEFTVPGSKSTATISGLKPGVDYTITVYAIDFYWGSYSPISINYRT,–,1500,–,889,–,–
B1,–,–,–,–,180,69
